The source of these data is PMC8351538 (Molecular Biology of the Cell, 2021).

Like-named read-outs stand apart in the source and are kept apart here.

For assay [1], the target named is T1, Gyp6 (S. cerevisiae (endogenous, purified …, UniProt P32806 1-458)).
T1 sequence: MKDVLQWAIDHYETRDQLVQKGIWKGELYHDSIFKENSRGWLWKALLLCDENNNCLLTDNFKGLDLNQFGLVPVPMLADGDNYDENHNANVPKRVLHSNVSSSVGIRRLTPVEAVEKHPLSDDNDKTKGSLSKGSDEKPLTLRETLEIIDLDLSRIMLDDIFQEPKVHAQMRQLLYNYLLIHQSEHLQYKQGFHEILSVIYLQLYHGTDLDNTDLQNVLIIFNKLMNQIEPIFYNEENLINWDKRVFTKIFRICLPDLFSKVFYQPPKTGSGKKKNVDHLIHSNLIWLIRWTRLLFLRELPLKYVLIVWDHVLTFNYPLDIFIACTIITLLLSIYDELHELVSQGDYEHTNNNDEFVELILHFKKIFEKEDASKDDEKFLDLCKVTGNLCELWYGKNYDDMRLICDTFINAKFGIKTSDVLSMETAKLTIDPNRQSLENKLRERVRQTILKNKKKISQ
In words: liposome flotation.

The target of assay [2] is T2, Gdi1 (S. cerevisiae, UniProt P39958 1-451).
T2 sequence: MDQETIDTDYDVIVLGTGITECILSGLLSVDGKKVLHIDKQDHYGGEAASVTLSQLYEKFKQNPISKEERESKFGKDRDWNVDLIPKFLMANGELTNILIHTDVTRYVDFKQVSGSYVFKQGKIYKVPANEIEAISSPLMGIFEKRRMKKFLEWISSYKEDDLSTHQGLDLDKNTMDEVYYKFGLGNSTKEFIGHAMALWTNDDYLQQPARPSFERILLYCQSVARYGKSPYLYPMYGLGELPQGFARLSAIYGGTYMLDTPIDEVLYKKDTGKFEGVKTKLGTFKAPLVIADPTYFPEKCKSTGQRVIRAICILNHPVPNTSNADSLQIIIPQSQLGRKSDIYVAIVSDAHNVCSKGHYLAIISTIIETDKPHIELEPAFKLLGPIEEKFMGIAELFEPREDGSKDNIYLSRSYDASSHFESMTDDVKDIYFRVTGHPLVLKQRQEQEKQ
The assay can be described thus: SEC. A general note: In gel filtration, larger molecules generally elute earlier.

Assay [3] deals with Sec7 (S. cerevisiae (endogenous, purified …, UniProt P11075 1-2009)). The assay can be described thus: liposome flotation.
Chain of Sec7 (S. cerevisiae (P11075 whole entry): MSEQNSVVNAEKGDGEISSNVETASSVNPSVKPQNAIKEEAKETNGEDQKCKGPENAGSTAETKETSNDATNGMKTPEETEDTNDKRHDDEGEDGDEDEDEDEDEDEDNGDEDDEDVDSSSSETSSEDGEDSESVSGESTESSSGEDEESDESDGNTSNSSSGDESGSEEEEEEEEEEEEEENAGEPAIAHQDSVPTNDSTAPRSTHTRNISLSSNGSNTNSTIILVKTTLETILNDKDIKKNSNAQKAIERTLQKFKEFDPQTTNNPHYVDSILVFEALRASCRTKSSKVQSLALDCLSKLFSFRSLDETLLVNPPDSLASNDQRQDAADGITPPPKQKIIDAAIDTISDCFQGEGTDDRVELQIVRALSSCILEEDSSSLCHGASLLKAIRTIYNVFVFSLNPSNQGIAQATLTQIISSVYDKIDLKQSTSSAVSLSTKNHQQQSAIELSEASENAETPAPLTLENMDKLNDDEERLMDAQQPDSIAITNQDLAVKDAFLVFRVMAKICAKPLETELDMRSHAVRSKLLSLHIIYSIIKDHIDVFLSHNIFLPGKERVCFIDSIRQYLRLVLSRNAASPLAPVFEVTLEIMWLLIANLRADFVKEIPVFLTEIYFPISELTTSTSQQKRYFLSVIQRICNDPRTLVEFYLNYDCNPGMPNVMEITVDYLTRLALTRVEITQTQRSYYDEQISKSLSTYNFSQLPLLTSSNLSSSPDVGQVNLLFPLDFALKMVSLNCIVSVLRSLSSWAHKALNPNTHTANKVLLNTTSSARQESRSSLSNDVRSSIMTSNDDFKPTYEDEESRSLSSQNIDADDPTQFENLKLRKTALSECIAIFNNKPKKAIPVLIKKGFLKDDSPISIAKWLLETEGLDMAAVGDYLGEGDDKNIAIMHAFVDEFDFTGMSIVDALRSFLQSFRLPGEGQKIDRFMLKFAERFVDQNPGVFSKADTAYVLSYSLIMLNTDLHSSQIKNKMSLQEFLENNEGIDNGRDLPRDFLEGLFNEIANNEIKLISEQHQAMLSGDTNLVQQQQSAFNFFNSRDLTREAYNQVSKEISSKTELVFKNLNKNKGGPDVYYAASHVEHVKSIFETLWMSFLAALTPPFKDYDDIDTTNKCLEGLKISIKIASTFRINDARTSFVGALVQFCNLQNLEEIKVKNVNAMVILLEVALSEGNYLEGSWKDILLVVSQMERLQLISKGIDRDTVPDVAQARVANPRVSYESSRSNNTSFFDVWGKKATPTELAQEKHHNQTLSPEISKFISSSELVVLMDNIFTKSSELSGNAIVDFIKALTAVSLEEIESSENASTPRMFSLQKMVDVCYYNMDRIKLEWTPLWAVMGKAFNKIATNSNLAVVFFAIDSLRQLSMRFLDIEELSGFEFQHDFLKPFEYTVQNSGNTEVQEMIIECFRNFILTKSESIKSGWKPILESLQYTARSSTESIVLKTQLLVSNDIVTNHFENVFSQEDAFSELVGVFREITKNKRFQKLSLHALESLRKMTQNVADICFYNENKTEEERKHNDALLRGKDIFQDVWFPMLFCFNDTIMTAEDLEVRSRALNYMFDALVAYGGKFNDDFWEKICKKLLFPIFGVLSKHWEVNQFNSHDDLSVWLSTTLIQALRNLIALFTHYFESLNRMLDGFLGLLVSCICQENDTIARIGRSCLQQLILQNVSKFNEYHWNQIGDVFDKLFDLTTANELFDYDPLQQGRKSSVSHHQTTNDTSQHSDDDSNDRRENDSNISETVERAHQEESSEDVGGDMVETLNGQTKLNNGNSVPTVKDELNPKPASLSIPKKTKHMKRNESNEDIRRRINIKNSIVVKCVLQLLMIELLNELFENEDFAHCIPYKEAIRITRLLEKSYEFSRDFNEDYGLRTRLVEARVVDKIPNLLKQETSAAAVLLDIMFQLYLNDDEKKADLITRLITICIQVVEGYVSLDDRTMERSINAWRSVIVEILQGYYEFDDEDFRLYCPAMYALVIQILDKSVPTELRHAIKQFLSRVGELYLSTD
For assay [4], the target named is T1, Gyp6. In words: liposome flotation. The source holds these as a separate data set.

B1: myristoylated Arl1 (natural protein)
chain: MGNIFSSMFDKLWGSNKELRILILGLDGAGKTTILYRLQIGEVVTTKPTIGFNVETLSYKNLKLNVWDLGGQTSIRPYWRCYYADTAAVIFVVDSTDKDRMSTASKELHLMLQEEELQDAALLVFANKQDQPGALSASEVSKELNLVELKDRSWSIVASSAIKGEGITEGLDWLIDVIKEEQL
modifications: N-myristoylated
For the molecule B1, in assay [1], the binding result is reported as “binds”.

B2: prenylated Ypt1 (natural protein)
chain: not shown
modifications: prenylated in vitro (geranylgeranyl pyrophosphate, GGTase)
Consider B2, for which the binding result in assay [2] is given as “binds”.

B3: prenylated Ypt32 (natural protein)
chain: MSNEDYGYDYDYLFKIVLIGDSGVGKSNLLSRFTTDEFNIESKSTIGVEFATRTIEVENKKIKAQIWDTAGQERYRAITSAYYRGAVGALIVYDISKSSSYENCNHWLTELRENADDNVAVGLIGNKSDLAHLRAVPTDEAKNFAMENQMLFTETSALNSDNVDKAFRELIVAIFQMVSKHQVDLSGSGTNNMGSNGAPKGPTISLTPAPKEDKKKKSSNCC
modifications: prenylated in vitro (geranylgeranyl pyrophosphate, GGTase)
With B3, the binding result in assay [3], in assay [4] and in assay [2] was “binds” each time.

B4: prenylated Ypt6 (natural protein)
chain: MSRSGKSLTKYKIVFLGEQGVGKTSLITRFMYDTFDDHYQATIGIDFLSKTMYLDDKTIRLQLWDTAGQERFRSLIPSYIRDSRVAIIVYDITKRKSFEYIDKWIEDVKNERGDENVILCIVGNKSDLSDERQISTEEGEKKAKLLGAKIFMETSTKAGYNVKALFKKIAKSLPEFQNSESTPLDSENANSANQNKPGVIDISTAEEQEQSACQC
modifications: prenylated in vitro (geranylgeranyl pyrophosphate, GGTase)
With B4, the binding result in assay [2] was “binds”.
